# Earlier results in paper PMC4610412.
# Target: pCdc25C (Homo sapiens) (UniProt P30307)
# Experiment: ITC
# Sequence of pCdc25C (Homo sapiens) (P30307 2-473): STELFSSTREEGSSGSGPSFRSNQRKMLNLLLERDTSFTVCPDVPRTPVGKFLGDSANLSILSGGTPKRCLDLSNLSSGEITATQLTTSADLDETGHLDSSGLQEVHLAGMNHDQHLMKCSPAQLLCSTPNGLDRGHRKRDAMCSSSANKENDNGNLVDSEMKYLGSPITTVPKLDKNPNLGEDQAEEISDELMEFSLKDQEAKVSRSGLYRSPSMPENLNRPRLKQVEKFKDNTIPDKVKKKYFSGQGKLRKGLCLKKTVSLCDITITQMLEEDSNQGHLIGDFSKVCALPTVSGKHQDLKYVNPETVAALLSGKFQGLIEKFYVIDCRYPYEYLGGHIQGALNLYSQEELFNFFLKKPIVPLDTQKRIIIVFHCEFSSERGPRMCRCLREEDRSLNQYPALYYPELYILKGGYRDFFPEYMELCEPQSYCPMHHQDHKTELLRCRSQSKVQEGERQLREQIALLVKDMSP
# Sequence of Pin1 WW (Q13526 2-42): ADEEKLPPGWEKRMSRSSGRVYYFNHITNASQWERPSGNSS
# Sequence of Pin1 PPIase (Q13526 52-163): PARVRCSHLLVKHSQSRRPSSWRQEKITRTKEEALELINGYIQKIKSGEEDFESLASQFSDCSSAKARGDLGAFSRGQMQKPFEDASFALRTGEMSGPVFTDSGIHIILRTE
row,Kd [µM],Substance
1,1000,Pin1 PPIase (from UniProt Q13526)
2,13,Pin1 WW (from UniProt Q13526)
